The assay deals with Leptospira interrogans heme oxygenase, wild type, ferric heme complex (Leptospira interrogans). Description: cross-linking.

By stoichiometry N is commonly meant the number of molecules, sites or subunits per partner or assembly.

Consider “Leptospira interrogans ferredoxin-NADP+ reductase, wild type (enzyme)”, for which the stoichiometry N turned out to be 1.
